Laboratory results reported in the supplement of paper PMC9112550, “Optimization of the antimicrobial peptide Bac7 by deep mutational scanning” (BMC Biology, 2022).

The sequences below were run on Escherichia coli TOP10 (assay: shrunken log2 fold change of peptide-encoding DNA abundance (4.5 h post-induction vs induction); higher = less antimicrobial activity (less host growth inhibition)). Settings: time post-induction: 4.5 h; library: site-saturation at positions 5, 18, 19, 20.
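Further: peptides expressed intracellularly from a pBAD plasmid library in pooled LB shake-flask culture, induced with 0.3% L-arabinose, DNA abundance read by NGS, three biological replicates, DESeq2 with apeglm shrinkage.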

| Sequence | shrunken log2 fold change |
| --- | --- |
| RRIRKRPPRLPRPRPRPSRFPRP | 1.06 |
| RRIRFRPPRLPRPRPRPKCDPRP | -0.136 |
| RRIRCRPPRLPRPRPRPQPHPRP | 0.067 |
| RRIRNRPPRLPRPRPRPGNEPRP | -0.223 |
| RRIRIRPPRLPRPRPRPRYCPRP | -0.157 |
| RRIRVRPPRLPRPRPRPNLTPRP | -0.186 |
| RRIRVRPPRLPRPRPRPNMTPRP | -0.256 |
| RRIRRRPPRLPRPRPRPRYPPRP | 0.252 |
| RRIRRRPPRLPRPRPRPDVAPRP | 0.592 |
| RRIRTRPPRLPRPRPRPSFRPRP | -1.02 |
| RRIRCRPPRLPRPRPRPWMNPRP | 0.0105 |
| RRIRLRPPRLPRPRPRPSWAPRP | -0.098 |
| RRIRDRPPRLPRPRPRPAFNPRP | -0.223 |
| RRIRGRPPRLPRPRPRPQKDPRP | 0.346 |
| RRIRYRPPRLPRPRPRPAIFPRP | -0.0382 |
| RRIRQRPPRLPRPRPRPFDLPRP | -0.318 |
| RRIRLRPPRLPRPRPRPDNDPRP | -0.228 |
| RRIRGRPPRLPRPRPRPTNMPRP | 0.316 |
| RRIRYRPPRLPRPRPRPTDDPRP | 0.0131 |
| RRIRMRPPRLPRPRPRPKMQPRP | 0.995 |
| RRIRPRPPRLPRPRPRPAGNPRP | 0.194 |
| RRIRERPPRLPRPRPRPGNNPRP | -0.426 |
| RRIRSRPPRLPRPRPRPHNSPRP | -0.357 |
| RRIRMRPPRLPRPRPRPYQNPRP | 0.0826 |
| RRIRWRPPRLPRPRPRPMEPPRP | 0.0539 |

| Sequence | shrunken log2 fold change |
| --- | --- |
| RRIRDRPPRLPRPRPRPYADPRP | -0.155 |
| RRIRDRPPRLPRPRPRPCVVPRP | -0.00921 |
| RRIRLRPPRLPRPRPRPMGYPRP | -0.126 |
| RRIRARPPRLPRPRPRPFRHPRP | -0.0722 |
| RRIRVRPPRLPRPRPRPFSEPRP | -0.237 |
| RRIRMRPPRLPRPRPRPIDWPRP | 0.483 |
| RRIRLRPPRLPRPRPRPIPEPRP | 0.0268 |
| RRIRPRPPRLPRPRPRPWCCPRP | -0.0996 |
| RRIRWRPPRLPRPRPRPTWKPRP | 0.261 |
| RRIRPRPPRLPRPRPRPEPIPRP | 0.26 |
| RRIRPRPPRLPRPRPRPGCAPRP | 1.55 |
| RRIRDRPPRLPRPRPRPVFVPRP | 0.225 |
| RRIRPRPPRLPRPRPRPHHTPRP | -0.617 |
| RRIRIRPPRLPRPRPRPNAFPRP | -0.0665 |
| RRIRKRPPRLPRPRPRPIKCPRP | -0.29 |
| RRIRERPPRLPRPRPRPFKIPRP | -0.0307 |
| RRIRQRPPRLPRPRPRPEMMPRP | 0.151 |
| RRIRGRPPRLPRPRPRPVKCPRP | -0.118 |
| RRIRGRPPRLPRPRPRPCVKPRP | 0.063 |
| RRIRFRPPRLPRPRPRPVCAPRP | 0.198 |
| RRIRNRPPRLPRPRPRPQVRPRP | 0.05 |
| RRIRHRPPRLPRPRPRPHEFPRP | 0.0248 |
| RRIRERPPRLPRPRPRPHVPPRP | -0.0791 |
| RRIRPRPPRLPRPRPRPAIYPRP | -0.017 |
| RRIRPRPPRLPRPRPRPWSEPRP | -0.0275 |

| Sequence | shrunken log2 fold change |
| --- | --- |
| RRIRHRPPRLPRPRPRPIWTPRP | -0.311 |
| RRIRDRPPRLPRPRPRPLCSPRP | 0.513 |
| RRIRWRPPRLPRPRPRPCAQPRP | 0.162 |
| RRIRPRPPRLPRPRPRPATLPRP | 0.223 |
| RRIRPRPPRLPRPRPRPIDWPRP | 0.272 |
| RRIRARPPRLPRPRPRPIFRPRP | 0.205 |
| RRIRGRPPRLPRPRPRPAGHPRP | 0.562 |
| RRIRYRPPRLPRPRPRPSGIPRP | -0.119 |
| RRIRDRPPRLPRPRPRPVCRPRP | 0.251 |
| RRIRRRPPRLPRPRPRPWMCPRP | 0.214 |
| RRIRARPPRLPRPRPRPWWYPRP | -0.172 |
| RRIRFRPPRLPRPRPRPYPQPRP | -0.356 |
| RRIRMRPPRLPRPRPRPHCIPRP | -0.0281 |
| RRIRTRPPRLPRPRPRPNNPPRP | -0.684 |
| RRIRYRPPRLPRPRPRPQWWPRP | 0.0898 |
| RRIRKRPPRLPRPRPRPSYKPRP | -0.692 |
| RRIRSRPPRLPRPRPRPVGIPRP | -0.012 |
| RRIRIRPPRLPRPRPRPPHVPRP | -0.265 |
| RRIRRRPPRLPRPRPRPNCDPRP | 0.186 |
| RRIRMRPPRLPRPRPRPKKLPRP | 0.354 |
| RRIRGRPPRLPRPRPRPAYTPRP | -0.166 |
| RRIRPRPPRLPRPRPRPSTCPRP | -0.11 |
| RRIRNRPPRLPRPRPRPLDGPRP | -0.0308 |
| RRIRTRPPRLPRPRPRPADLPRP | 0.0274 |
| RRIRYRPPRLPRPRPRPVLEPRP | -0.0835 |

| Sequence | shrunken log2 fold change |
| --- | --- |
| RRIRHRPPRLPRPRPRPSQGPRP | 0.0306 |
| RRIRNRPPRLPRPRPRPHFFPRP | 3.33 |
| RRIRSRPPRLPRPRPRPEGSPRP | 0.223 |
| RRIRMRPPRLPRPRPRPSEEPRP | 0.0287 |
| RRIRVRPPRLPRPRPRPGCAPRP | 0.757 |
| RRIRRRPPRLPRPRPRPDSHPRP | -0.00863 |
| RRIRLRPPRLPRPRPRPKTTPRP | 0.196 |
| RRIRERPPRLPRPRPRPLWAPRP | 0.274 |
| RRIRERPPRLPRPRPRPPMCPRP | -0.305 |
| RRIRGRPPRLPRPRPRPQSMPRP | 0.276 |
| RRIRWRPPRLPRPRPRPLVTPRP | 0.687 |
| RRIRRRPPRLPRPRPRPTWAPRP | 0.7 |
| RRIRMRPPRLPRPRPRPDPIPRP | -0.249 |
| RRIRGRPPRLPRPRPRPHPRPRP | 0.839 |
| RRIRHRPPRLPRPRPRPPTDPRP | -0.254 |
| RRIRSRPPRLPRPRPRPLRGPRP | 0.897 |
| RRIRERPPRLPRPRPRPHFEPRP | -0.211 |
| RRIRLRPPRLPRPRPRPNWSPRP | -0.136 |
| RRIRQRPPRLPRPRPRPEVAPRP | 0.00859 |
| RRIRFRPPRLPRPRPRPERGPRP | 0.0525 |
| RRIRDRPPRLPRPRPRPIFSPRP | -0.182 |
| RRIRSRPPRLPRPRPRPASPPRP | -0.0809 |
| RRIRDRPPRLPRPRPRPDGKPRP | 0.00996 |
| RRIRKRPPRLPRPRPRPCWKPRP | 0.0714 |
| RRIRYRPPRLPRPRPRPDSCPRP | 0.0675 |

| Sequence | shrunken log2 fold change |
| --- | --- |
| RRIRFRPPRLPRPRPRPEYHPRP | -0.202 |
| RRIRVRPPRLPRPRPRPNYLPRP | -0.102 |
| RRIRFRPPRLPRPRPRPQYCPRP | -0.943 |
| RRIRARPPRLPRPRPRPGIFPRP | 0.468 |
| RRIRIRPPRLPRPRPRPGADPRP | -0.193 |
| RRIRERPPRLPRPRPRPGAQPRP | -0.23 |
| RRIRVRPPRLPRPRPRPRFHPRP | -0.264 |
| RRIRFRPPRLPRPRPRPQFHPRP | -0.839 |
| RRIRQRPPRLPRPRPRPWIGPRP | -0.013 |
| RRIRVRPPRLPRPRPRPAFYPRP | -0.135 |
| RRIRTRPPRLPRPRPRPTMFPRP | -0.148 |
| RRIRLRPPRLPRPRPRPITWPRP | -0.543 |
| RRIRGRPPRLPRPRPRPSVSPRP | 0.166 |
| RRIRSRPPRLPRPRPRPCFGPRP | -0.217 |
| RRIRERPPRLPRPRPRPYMRPRP | -0.188 |
| RRIRIRPPRLPRPRPRPSQSPRP | -0.0979 |
| RRIRHRPPRLPRPRPRPPYRPRP | -0.399 |
| RRIRQRPPRLPRPRPRPRKEPRP | -0.0194 |
| RRIRGRPPRLPRPRPRPEHQPRP | 0.529 |
| RRIRIRPPRLPRPRPRPCPFPRP | -1.38 |
| RRIRFRPPRLPRPRPRPAMNPRP | -0.102 |
| RRIRCRPPRLPRPRPRPWHEPRP | -0.0591 |
| RRIRERPPRLPRPRPRPHAYPRP | -0.352 |
| RRIRWRPPRLPRPRPRPHDTPRP | 0.0511 |
| RRIRKRPPRLPRPRPRPHHGPRP | -0.11 |
